Measured values from article PMC8239462, “Molecular chaperone RAP interacts with LRP1 in a dynamic bivalent mode and enhances folding of ligand-binding regions of other LDLR family receptors” (The Journal of Biological Chemistry, 2021).
“And” between values parts separate entries of the source, which are not always exact repeats. Identical values can stand only once.

B1: RAP (commercial; R&D, 4296-LR) (natural protein, human)
chain: YSREKNQPKPSPKRESGEEFRMEKLNQLWEKAQRLHLPPVRLAELHADLKIQERDELAWKKLKLDGLDEDGEKEARLIRNLNVILAKYGLDGKKDARQVTSNSLSGTQEDGLDDPRLEKLWHKAKTSGKFSGEELDKLWREFLHHKEKVHEYNVLLETLSRTEEIHENVISPSDLSDIKGSVLHSRHTELKEKLRSINQGLDRLRRVSHQGYSTEAEFEEPRVIDLWDLAQSANLTDKELEAFREELKHFEAKIEKHNHYQKQLEIAHEKLRHAESVGDGERVSRSREKHALLEGRTKELGYTVKKHLQDLSGRISRARHNEL
notes: RAP (LDL-receptor related protein-associated protein), commercial preparation; also called receptor-associated protein; LDL-receptor related protein-associated protein; source: bought: R&D (4296-LR)

What was measured:
Details in all cases: both partners purified
[1] = target: T1, LRP1 cluster III, recombinant, secreted from Sf9 cells (human, UniProt Q07954 2522-2940); experiment: SPR; Biacore T200; receptor fragment COEXPRESSED with RAP (RAP+; for the LRP1 clusters RAP without HTEL; RAP washed off during purification), monomer, amine-coupled to CM5 at ~250 RU; RAP (0.08–20 nM), FVIII (0.8–200 nM) or ApoE3 (0.78–200 nM) in flow, 30 ul/min, contact 180 s; HBS-P Ca2+ pH 7.4; KD from the steady-state affinity model
T1 construct: also called cluster III (RAP+); cluster III (RAP−)

[2] = target: T2, recombinant Factor VIII (Advate) (UniProt P00451 20-2351); experiment: SPR; Biacore T200; receptor fragment expressed WITHOUT RAP (RAP−), monomer, amine-coupled to CM5 at ~250 RU; RAP (0.08–20 nM), FVIII (0.8–200 nM) or ApoE3 (0.78–200 nM) in flow, 30 ul/min, contact 180 s; HBS-P Ca2+ pH 7.4 (10 mM HEPES, 150 mM NaCl, 5 mM CaCl2, 0.005% Tween-20); KD from the steady-state affinity model
T2 construct: blood coagulation factor VIII, recombinant drug product Advate; also called FVIII; blood coagulation factor VIII; source: bought: Advate

[3] = target: T2, recombinant Factor VIII (Advate); experiment: SPR; Biacore T200; LRP1 cluster II coexpressed with RAP having the HTEL signal (RAP-HTEL+), monomer, amine-coupled to CM5 at ~250 RU; RAP (0.08–20 nM) or FVIII (0.8–200 nM) in flow; HBS-P Ca2+ pH 7.4; KD from the steady-state affinity model
[4] = target: T2, recombinant Factor VIII (Advate); experiment: SPR; Biacore T200; receptor fragment COEXPRESSED with RAP (RAP+; for the LRP1 clusters RAP without HTEL; RAP washed off during purification), monomer, amine-coupled to CM5 at ~250 RU; RAP (0.08–20 nM), FVIII (0.8–200 nM) or ApoE3 (0.78–200 nM) in flow, 30 ul/min, contact 180 s; HBS-P Ca2+ pH 7.4; KD from the steady-state affinity model
[5] = target: T2, recombinant Factor VIII (Advate); experiment: SPR; Biacore T200; commercial LRP1 cluster Fc chimeras (R&D) amine-coupled to CM5 at ~250 RU; RAP (0.08–20 nM) or FVIII (0.8–200 nM) in flow; HBS-P Ca2+ pH 7.4; KD from the steady-state affinity model
[6] = target: B1; experiment: SPR; Biacore T200; receptor fragment COEXPRESSED with RAP (RAP+; for the LRP1 clusters RAP without HTEL; RAP washed off during purification), monomer, amine-coupled to CM5 at ~250 RU; RAP (0.08–20 nM), FVIII (0.8–200 nM) or ApoE3 (0.78–200 nM) in flow, 30 ul/min, contact 180 s; HBS-P Ca2+ pH 7.4; KD from the steady-state affinity model
[7] = target: B1; experiment: SPR; Biacore T200; receptor fragment expressed WITHOUT RAP (RAP−), monomer, amine-coupled to CM5 at ~250 RU; RAP (0.08–20 nM), FVIII (0.8–200 nM) or ApoE3 (0.78–200 nM) in flow, 30 ul/min, contact 180 s; HBS-P Ca2+ pH 7.4 (10 mM HEPES, 150 mM NaCl, 5 mM CaCl2, 0.005% Tween-20); KD from the steady-state affinity model

T2 sequence (P00451 20-2351): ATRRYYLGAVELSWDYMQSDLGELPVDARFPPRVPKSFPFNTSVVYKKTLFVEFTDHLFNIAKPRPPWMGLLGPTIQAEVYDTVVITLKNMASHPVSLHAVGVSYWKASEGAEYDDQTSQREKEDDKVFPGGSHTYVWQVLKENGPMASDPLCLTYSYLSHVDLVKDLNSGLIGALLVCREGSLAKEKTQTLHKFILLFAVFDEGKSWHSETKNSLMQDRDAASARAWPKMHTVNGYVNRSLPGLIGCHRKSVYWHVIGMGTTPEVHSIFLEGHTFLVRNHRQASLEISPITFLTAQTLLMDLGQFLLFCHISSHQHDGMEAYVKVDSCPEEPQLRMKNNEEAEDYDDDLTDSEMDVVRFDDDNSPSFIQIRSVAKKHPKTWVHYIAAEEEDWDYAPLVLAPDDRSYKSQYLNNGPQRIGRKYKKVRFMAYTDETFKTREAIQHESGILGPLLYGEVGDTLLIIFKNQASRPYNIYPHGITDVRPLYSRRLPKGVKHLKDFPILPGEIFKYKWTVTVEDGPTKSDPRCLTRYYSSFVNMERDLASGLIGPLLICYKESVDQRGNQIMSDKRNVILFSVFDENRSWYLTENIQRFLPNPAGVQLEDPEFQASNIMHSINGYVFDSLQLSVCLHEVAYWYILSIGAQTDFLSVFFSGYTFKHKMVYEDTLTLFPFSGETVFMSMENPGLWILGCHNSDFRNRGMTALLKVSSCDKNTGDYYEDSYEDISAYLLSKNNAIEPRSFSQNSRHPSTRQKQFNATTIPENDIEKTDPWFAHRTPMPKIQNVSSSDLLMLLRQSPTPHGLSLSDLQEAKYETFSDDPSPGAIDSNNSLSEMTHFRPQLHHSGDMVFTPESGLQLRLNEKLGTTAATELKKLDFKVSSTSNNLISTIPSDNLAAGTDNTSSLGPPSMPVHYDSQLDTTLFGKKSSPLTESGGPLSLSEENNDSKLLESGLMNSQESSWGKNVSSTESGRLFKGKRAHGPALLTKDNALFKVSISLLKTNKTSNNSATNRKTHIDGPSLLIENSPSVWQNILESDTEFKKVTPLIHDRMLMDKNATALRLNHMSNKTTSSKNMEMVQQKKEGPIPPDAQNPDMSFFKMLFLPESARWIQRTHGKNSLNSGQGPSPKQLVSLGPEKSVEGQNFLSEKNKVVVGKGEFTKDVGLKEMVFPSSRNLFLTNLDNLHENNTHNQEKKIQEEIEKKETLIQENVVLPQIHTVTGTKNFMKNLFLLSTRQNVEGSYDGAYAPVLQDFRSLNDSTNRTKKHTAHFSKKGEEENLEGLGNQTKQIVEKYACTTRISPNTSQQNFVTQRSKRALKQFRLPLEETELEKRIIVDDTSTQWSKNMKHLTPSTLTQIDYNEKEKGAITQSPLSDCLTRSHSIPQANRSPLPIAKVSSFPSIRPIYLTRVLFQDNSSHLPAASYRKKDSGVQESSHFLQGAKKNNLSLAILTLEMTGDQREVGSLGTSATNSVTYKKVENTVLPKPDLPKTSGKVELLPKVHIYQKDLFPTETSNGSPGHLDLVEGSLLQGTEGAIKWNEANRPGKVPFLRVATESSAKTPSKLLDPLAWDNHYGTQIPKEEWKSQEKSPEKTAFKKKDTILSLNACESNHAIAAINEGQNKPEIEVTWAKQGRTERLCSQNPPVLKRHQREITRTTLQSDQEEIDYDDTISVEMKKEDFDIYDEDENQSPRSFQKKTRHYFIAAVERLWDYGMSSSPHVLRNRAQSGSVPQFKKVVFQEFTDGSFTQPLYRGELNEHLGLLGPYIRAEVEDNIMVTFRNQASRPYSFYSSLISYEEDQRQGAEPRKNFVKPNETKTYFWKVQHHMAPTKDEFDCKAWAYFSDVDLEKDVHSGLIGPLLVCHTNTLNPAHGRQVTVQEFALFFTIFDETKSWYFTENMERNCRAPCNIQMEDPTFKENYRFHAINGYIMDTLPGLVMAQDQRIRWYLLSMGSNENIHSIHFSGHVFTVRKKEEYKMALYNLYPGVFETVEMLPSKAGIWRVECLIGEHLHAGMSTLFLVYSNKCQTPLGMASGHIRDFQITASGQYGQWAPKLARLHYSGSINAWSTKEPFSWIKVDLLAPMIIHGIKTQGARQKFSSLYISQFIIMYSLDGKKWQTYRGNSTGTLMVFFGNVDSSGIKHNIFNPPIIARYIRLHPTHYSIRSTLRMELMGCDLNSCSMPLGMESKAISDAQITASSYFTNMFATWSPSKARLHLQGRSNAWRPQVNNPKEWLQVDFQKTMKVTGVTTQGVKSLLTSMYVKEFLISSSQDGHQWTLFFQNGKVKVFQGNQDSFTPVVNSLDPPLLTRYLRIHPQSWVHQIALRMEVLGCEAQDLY
T1 sequence (Q07954 2522-2940): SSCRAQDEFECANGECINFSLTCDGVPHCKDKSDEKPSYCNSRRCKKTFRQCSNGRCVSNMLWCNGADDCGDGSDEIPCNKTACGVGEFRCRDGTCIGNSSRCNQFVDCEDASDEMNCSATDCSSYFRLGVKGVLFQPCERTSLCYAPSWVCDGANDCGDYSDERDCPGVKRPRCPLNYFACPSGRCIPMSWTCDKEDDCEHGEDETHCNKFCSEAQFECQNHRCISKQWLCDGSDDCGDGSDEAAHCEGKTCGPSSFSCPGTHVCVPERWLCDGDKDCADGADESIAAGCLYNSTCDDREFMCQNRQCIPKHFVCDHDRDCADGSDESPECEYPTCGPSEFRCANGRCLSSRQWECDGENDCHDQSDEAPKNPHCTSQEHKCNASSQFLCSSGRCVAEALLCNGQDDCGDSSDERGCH

## B1
[1]
  Kd: 2 nM

B2: LRP1 cluster II (CR.3–10), recombinant, secreted from Sf9 cells (domain or fragment)
chain: PQCQPGEFACANSRCIQERWKCDGDNDCLDNSDEAPALCHQHTCPSDRFKCENNRCIPNRWLCDGDNDCGNSEDESNATCSARTCPPNQFSCASGRCIPISWTCDLDDDCGDRSDESASCAYPTCFPLTQFTCNNGRCININWRCDNDNDCGDNSDEAGCSHSCSSTQFKCNSGRCIPEHWTCDGDNDCGDYSDETHANCTNQATRPPGGCHTDEFQCRLDGLCIPLRWRCDGDTDCMDSSDEKSCEGVTHVCDPSVKFGCKDSARCISKAWVCDGDNDCEDNSDEENCESLACRPPSHPCANNTSVCLPPDKLCDGNDDCGDGSDEGELC
notes: also called LRP1 cluster II (8 CRs); cluster II (RAP−)
[2]
  Kd: 244 nM and 192 nM
[3]
  Kd: 37 nM
[4]
  Kd: 25 nM and 42 nM

B3: recombinant human LRP-1 cluster II Fc chimera protein (R&D, 2368-L2) (Fc fusion, UniProt Q07954 852-1182, looked up)
chain: PQCQPGEFACANSRCIQERWKCDGDNDCLDNSDEAPALCHQHTCPSDRFKCENNRCIPNRWLCDGDNDCGNSEDESNATCSARTCPPNQFSCASGRCIPISWTCDLDDDCGDRSDESASCAYPTCFPLTQFTCNNGRCININWRCDNDNDCGDNSDEAGCSHSCSSTQFKCNSGRCIPEHWTCDGDNDCGDYSDETHANCTNQATRPPGGCHTDEFQCRLDGLCIPLRWRCDGDTDCMDSSDEKSCEGVTHVCDPSVKFGCKDSARCISKAWVCDGDNDCEDNSDEENCESLACRPPSHPCANNTSVCLPPDKLCDGNDDCGDGSDEGELC
notes: human LRP1 cluster II of the bought Fc chimera; also called commercial LRP1 cluster II; source: bought: R&D (2368-L2)
[5]
  Kd: 450 nM

B4: LRP1 CR.6–8 triplet coexpressed with RAP (RAP+) (domain or fragment)
chain: not shown
notes: human LRP1 complement-type repeats 6–8 (cluster II); also called LRP1 CR; 6–8 (RAP+); source: Sf9, baculovirus (pFastBac-Dual), coexpressed with RAP; purified (HisTrap Excel, Superdex 75, monomer peak)
[6]
  Kd: 2.8 nM

B5: LRP1 CR.6–8 triplet expressed without RAP (RAP−) (domain or fragment)
chain: not shown
notes: human LRP1 complement-type repeats 6–8 (cluster II); also called LRP1 CR.6–8 (RAP−); source: Sf9, baculovirus (pFastBac-Dual), expressed without RAP; purified (HisTrap Excel, Superdex 75, monomer peak)
[7]
  Kd: 2.9 nM

B6: LRP1 CR.6–7 doublet (coexpression study) (domain or fragment)
chain: not shown
notes: human LRP1 complement-type repeats 6–7 (cluster II); also called LRP1 CR; 6–7 (RAP+); LRP1 CR 6–7 (RAP−); source: Sf9, baculovirus (pFastBac-Dual), expressed without RAP or coexpressed with RAP; purified (HisTrap Excel, Superdex 75, monomer peak)
[7]
  Kd: 3.9 nM
[6]
  Kd: 3.8 nM

B7: LRP1 CR.7–8 doublet (coexpression study) (domain or fragment)
chain: not shown
notes: human LRP1 complement-type repeats 7–8 (cluster II); also called LRP1 CR.7–8 (RAP+); LRP1 CR.7–8 (RAP−); source: Sf9, baculovirus (pFastBac-Dual), expressed without RAP or coexpressed with RAP; purified (HisTrap Excel, Superdex 75, monomer peak)
[6]
  Kd: 3.1 nM

B8: LRP1 CR.7 singlet (domain or fragment)
chain: not shown
notes: human LRP1 complement-type repeat 7 (cluster II); also called LRP1 CR.7 (RAP+); LRP1 CR.7 (RAP−); source: Sf9, baculovirus (pFastBac-Dual), expressed without RAP or coexpressed with RAP; purified (HisTrap Excel, Superdex 75, monomer peak)
[7]
  Kd: 43.7 nM
[6]
  Kd: 34.9 nM
